T1: SYNJ2BP, P57105
T1 sequence (P57105 8-110, limits assumed, looked up): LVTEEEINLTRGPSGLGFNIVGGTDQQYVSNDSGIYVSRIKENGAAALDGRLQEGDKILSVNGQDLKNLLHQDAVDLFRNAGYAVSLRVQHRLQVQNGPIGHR

T2: CARD11, Q9BXL7
T2 sequence (Q9BXL7 662-765, limits assumed, looked up): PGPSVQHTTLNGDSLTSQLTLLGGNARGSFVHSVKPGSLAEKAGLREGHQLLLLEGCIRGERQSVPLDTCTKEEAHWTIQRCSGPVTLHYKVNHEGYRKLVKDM

T3: DFNB31_1, Q9P202
T3 sequence (Q9P202 135-233, limits assumed, looked up): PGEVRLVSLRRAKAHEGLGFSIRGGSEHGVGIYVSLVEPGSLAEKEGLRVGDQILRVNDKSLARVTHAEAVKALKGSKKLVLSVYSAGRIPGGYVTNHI

T4: ARHGEF11, O15085
T4 sequence (O15085 42-136, limits assumed, looked up): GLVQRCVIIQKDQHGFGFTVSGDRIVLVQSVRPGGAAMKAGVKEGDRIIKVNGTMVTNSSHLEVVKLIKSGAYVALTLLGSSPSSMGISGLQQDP

T5: MPDZ_5, O75970
T5 sequence (O75970 695-796, limits assumed, looked up): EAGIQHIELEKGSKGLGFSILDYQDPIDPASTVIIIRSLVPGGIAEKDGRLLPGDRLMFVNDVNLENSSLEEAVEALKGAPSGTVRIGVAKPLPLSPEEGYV

T6: GRIP1_3, Q9Y3R0
T6 sequence (Q9Y3R0 247-346, limits assumed, looked up): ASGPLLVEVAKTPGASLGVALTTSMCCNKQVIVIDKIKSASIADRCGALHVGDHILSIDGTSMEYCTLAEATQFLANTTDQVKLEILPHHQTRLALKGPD

T7: DLG3_2, Q92796
T7 sequence (Q92796 221-321, limits assumed, looked up): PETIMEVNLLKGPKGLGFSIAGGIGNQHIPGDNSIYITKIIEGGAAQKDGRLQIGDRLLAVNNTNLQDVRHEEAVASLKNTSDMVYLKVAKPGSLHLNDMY

T8: MPP7, Q5T2T1
T8 sequence (Q5T2T1 134-230, limits assumed, looked up): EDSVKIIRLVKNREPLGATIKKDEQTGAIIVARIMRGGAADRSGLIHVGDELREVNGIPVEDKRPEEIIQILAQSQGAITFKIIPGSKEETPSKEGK

T9: RADIL, Q96JH8
T9 sequence (Q96JH8 971-1071, limits assumed, looked up): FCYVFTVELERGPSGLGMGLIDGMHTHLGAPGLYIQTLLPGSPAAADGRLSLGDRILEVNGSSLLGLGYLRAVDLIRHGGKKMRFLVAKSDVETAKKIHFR

T10: SIPA1L2, Q9P2F8
T10 sequence (Q9P2F8 945-1036, limits assumed, looked up): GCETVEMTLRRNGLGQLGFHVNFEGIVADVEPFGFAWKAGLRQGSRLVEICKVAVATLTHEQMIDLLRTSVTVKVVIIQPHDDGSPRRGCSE

T11: LRRC7, Q96NW7
T11 sequence (Q96NW7 1440-1537, limits assumed, looked up): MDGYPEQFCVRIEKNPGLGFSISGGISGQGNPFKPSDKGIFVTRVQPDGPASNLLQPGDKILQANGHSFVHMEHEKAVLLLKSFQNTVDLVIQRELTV

T12: RHPN1, Q8TCX5
T12 sequence (Q8TCX5 508-602, limits assumed, looked up): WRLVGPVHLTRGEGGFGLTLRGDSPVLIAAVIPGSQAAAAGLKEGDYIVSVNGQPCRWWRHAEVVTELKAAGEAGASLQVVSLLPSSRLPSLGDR

T13: DLG3_3, Q92796
T13 sequence (Q92796 374-475, limits assumed, looked up): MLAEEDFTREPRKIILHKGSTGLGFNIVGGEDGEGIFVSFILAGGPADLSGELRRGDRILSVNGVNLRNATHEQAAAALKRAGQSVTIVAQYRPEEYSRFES


How the values were obtained:
Assay in all cases: holdup assay
Design in all cases: key: below the threshold = too weak to quantify, mostly under pKd 3.1 to 4
Conditions in all cases: plain residues with an end cap or a label only (N-terminal biotin on a linker: ado-ado)
[1] = target: Inadl_1, Q8NI35
Chain of Inadl_1, Q8NI35 (Q8NI35 113-229): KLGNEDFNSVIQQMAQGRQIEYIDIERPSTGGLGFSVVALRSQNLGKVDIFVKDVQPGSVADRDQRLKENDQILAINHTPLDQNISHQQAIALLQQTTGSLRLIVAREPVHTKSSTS

[2] = target: GRIP2_6, Q9C0E4
Chain of GRIP2_6, Q9C0E4 (Q9C0E4 648-740): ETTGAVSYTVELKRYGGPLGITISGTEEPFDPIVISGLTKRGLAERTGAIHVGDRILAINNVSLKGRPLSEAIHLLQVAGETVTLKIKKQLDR

[3] = target: T1, SYNJ2BP, P57105
[4] = target: T2, CARD11, Q9BXL7
[5] = target: NHERF4_2, Q86UT5
Chain of NHERF4_2, Q86UT5 (Q86UT5 220-308): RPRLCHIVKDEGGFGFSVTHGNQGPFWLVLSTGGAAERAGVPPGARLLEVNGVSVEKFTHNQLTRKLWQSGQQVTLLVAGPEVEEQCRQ

[6] = target: T3, DFNB31_1, Q9P202
[7] = target: FRMPD2_3, Q68DX3
Chain of FRMPD2_3, Q68DX3 (Q68DX3 1073-1166): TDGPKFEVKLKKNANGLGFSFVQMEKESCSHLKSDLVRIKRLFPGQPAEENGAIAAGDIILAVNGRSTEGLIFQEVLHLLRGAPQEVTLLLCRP

[8] = target: T4, ARHGEF11, O15085
[9] = target: SNX27, Q96L92
[10] = target: T5, MPDZ_5, O75970
[11] = target: MAGI2_2, Q86UL8
Chain of MAGI2_2, Q86UL8 (Q86UL8 410-522): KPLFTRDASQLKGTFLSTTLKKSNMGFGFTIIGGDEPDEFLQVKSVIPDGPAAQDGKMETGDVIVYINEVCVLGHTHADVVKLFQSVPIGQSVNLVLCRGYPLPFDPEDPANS

[12] = target: ARHGEF12, Q9NZN5-2
Chain of ARHGEF12, Q9NZN5-2 (Q9NZN5 other isoform, or with tags, fused parts or gaps): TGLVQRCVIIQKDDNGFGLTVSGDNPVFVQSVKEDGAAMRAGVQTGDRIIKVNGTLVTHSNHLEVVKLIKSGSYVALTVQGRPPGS

[13] = target: TJP1_3, Q07157
Chain of TJP1_3, Q07157 (Q07157 416-512): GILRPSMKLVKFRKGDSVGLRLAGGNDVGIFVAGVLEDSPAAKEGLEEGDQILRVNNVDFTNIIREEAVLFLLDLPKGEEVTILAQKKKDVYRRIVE

[14] = target: T6, GRIP1_3, Q9Y3R0
[15] = target: T7, DLG3_2, Q92796
[16] = target: T8, MPP7, Q5T2T1
[17] = target: T9, RADIL, Q96JH8
[18] = target: GRIP2_5, Q9C0E4
Chain of GRIP2_5, Q9C0E4 (Q9C0E4 544-642): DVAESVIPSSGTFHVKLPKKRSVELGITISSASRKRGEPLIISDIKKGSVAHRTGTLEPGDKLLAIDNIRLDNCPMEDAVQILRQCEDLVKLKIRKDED

[19] = target: T10, SIPA1L2, Q9P2F8
[20] = target: HTRA1, Q92743
Chain of HTRA1, Q92743 (Q92743 360-477): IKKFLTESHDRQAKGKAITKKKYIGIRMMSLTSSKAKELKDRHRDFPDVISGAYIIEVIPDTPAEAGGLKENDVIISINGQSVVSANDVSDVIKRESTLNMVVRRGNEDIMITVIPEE

[21] = target: Inadl_6, Q8NI35
Chain of Inadl_6, Q8NI35 (Q8NI35 1058-1167): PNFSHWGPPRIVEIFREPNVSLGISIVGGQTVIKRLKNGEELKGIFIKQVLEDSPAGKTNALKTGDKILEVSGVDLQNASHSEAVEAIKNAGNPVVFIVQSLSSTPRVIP

[22] = target: T11, LRRC7, Q96NW7
[23] = target: T12, RHPN1, Q8TCX5
[24] = target: T13, DLG3_3, Q92796

pKd [1]	pKd [2]	pKd [3]	pKd [4]	pKd [5]	pKd [6]	pKd [7]	pKd [8]	pKd [9]	pKd [10]	pKd [11]	pKd [12]	pKd [13]	pKd [14]	pKd [15]	pKd [16]	pKd [17]	pKd [18]	pKd [19]	pKd [20]	Binder	further results
below the threshold	below the threshold	5.08	below the threshold	below the threshold	3.78	3.62	4.07	5.64	below the threshold	4.59	3.57	below the threshold	below the threshold	4.72	below the threshold	4	below the threshold	below the threshold	4.41	TNSRHGETTV [FZD2, Q14332]	pKd [21]: below the threshold; pKd [22]: below the threshold; pKd [23]: 4.16; pKd [24]: 4.24
below the threshold	below the threshold	4.76	below the threshold	below the threshold	3.64	below the threshold	4.04	5.28	below the threshold	5.26	4.13	below the threshold	below the threshold	5.52	below the threshold	4.04	below the threshold	below the threshold	4.35	VKRNSKETVV [MARCHF3, Q86UD3]	pKd [21]: below the threshold; pKd [22]: 3.79; pKd [23]: 4.07; pKd [24]: 4.7
below the threshold	below the threshold	4.83	below the threshold	below the threshold	3.8	below the threshold	3.67	5.09	below the threshold	4.28	below the threshold	below the threshold	below the threshold	4.81	below the threshold	4.3	below the threshold	below the threshold	4.41	NIAESLESLV [PTPRZ1, P23471]	pKd [21]: 4; pKd [22]: 3.76; pKd [23]: 4.6; pKd [24]: below the threshold
below the threshold	below the threshold	4.85	below the threshold	below the threshold	below the threshold	below the threshold	3.74	below the threshold	below the threshold	5.44	3.79	below the threshold	below the threshold	4.45	below the threshold	below the threshold	below the threshold	below the threshold	below the threshold	STKRKLASAV [NCF1, P14598]	pKd [21]: below the threshold; pKd [22]: below the threshold; pKd [23]: below the threshold; pKd [24]: below the threshold
below the threshold	below the threshold	5.44	below the threshold	below the threshold	3.61	below the threshold	4.04	4.45	below the threshold	below the threshold	4.03	below the threshold	below the threshold	4.51	below the threshold	below the threshold	below the threshold	below the threshold	3.95	LESTTVGTSV [KARS1, Q15046]	pKd [21]: below the threshold; pKd [22]: below the threshold; pKd [23]: 4.07; pKd [24]: 3.6
below the threshold	below the threshold	4.2	below the threshold	below the threshold	below the threshold	below the threshold	4.04	5.15	below the threshold	5.2	4.26	below the threshold	below the threshold	5.07	below the threshold	3.64	below the threshold	below the threshold	4.06	ILRKSTTTTV [PRR16, Q569H4]	pKd [21]: below the threshold; pKd [22]: below the threshold; pKd [23]: 4.01; pKd [24]: 3.97
